Data taken from publication PMC5422739.

B1: histidine tagged HTE20 (domain or fragment)
chain: GIPGAAVPGVVSPEAAAKAAAKAAKYGARPGVGVGGIPTYGVGAGGFPGFGVGVG
B2: HTE20 (20th exon of human tropoelastin) (domain or fragment)
chain: B1 chain

Columns and labels:
[1] = molecular target: LigA on the surface of L. biflexa serovar Patoc ligA
[2] = molecular target: tag free LigB12 (amino acids 1,047–1,119 in LigB) (L. interrogans serovar Pomona); test: SPR; Biacore 3000; tag free LigB12 immobilised on CM5 (about 1,000 RU); HTE truncates 0 to 5 μM injected in PBS at 30 μL/min, 25°C; 1:1 Langmuir model
[3] = molecular target: tag free LigB12 (amino acids 1,047–1,119 in LigB) (L. interrogans serovar Pomona); test: other fluorescence titration; intrinsic tryptophan fluorescence of LigB12 (2 μM), excitation 295 nm, read at 315 nm, 25°C, PBS; HTE20 or HTE20N titrated 10 to 0.625 μM
[4] = molecular target: GST tagged LigB12 (amino acids 1,047–1,119 in LigB) (L. interrogans serovar Pomona); test: ELISA; competitive; 5 μM GST-LigB4 or GST-LigB12 pre-incubated 1 h with HTE17-20, HTE20N or HTE20C (10 to 0.156 μM), then added to WI-38 cell monolayers at 37°C; HRP anti-GST
[5] = molecular target: GST tagged LigB4 (amino acids 307–403 in LigB) (L. interrogans serovar Pomona); test: as above
[6] = molecular target: tag-free LigB12 mutant D1061N (L. interrogans serovar Pomona); test: ELISA; tag-free LigB12 wild type or point mutants coated (1 μM/well); His tagged HTE20 or HTE20N titrated 0 to 10 μM; anti-His detection
[7] = molecular target: tag-free LigB12 mutant D1066A (L. interrogans serovar Pomona); test: as above
[8] = molecular target: tag-free LigB12 mutant E1088A (L. interrogans serovar Pomona); test: as above
[9] = molecular target: tag-free LigB12 mutant F1054A (L. interrogans serovar Pomona); test: as above
[10] = molecular target: LigB12-12-5 chimera (L. interrogans serovar Pomona); test: ELISA; tag-free LigB5/LigB12 and LigB7/LigB10 chimeras and wild-type domains coated (1 μM/well); 5 μM histidine tagged HTE17-20, HTE20 or HTE20N applied; anti-His detection
[11] = molecular target: LigB12-5-12 chimera (L. interrogans serovar Pomona); test: as above

Row | Binder | inhibition of the adhesion of LigA-expressing L. biflexa (Patoc ligA) to WI-38 cells after pre-incubation with HTE20N, 10 to 0.156 μM; ELISA with hamster anti-L. biflexa sera [1] | Kd [2] | koff [2] | kon [2] | Kd [3] | percent decrease of LigB12 binding to WI-38 cells at the highest concentration [4] | percent decrease of LigB4 binding to WI-38 cells at the highest concentration [5] | percent of wild-type LigB12 binding [6] | percent of wild-type LigB12 binding [7] | Kd [8] | percent of wild-type LigB12 binding [9] | percent of wild-type LigB12 binding [10] | percent of wild-type LigB12 binding [11]
1 | GIPGAAVPGVVSPEAAAKAAAKAAKYG (domain or fragment) [HTE20N (the first 27 residues of HTE20, amino acids 358–384 of HTE)] | 58% | 780 nM | 0.0021 s⁻¹ | 2700 M⁻¹ s⁻¹ | 820 nM | 51% | 54% | – | – | – | – | – | –
2 | B1 | – | – | – | – | – | – | – | 32% | 26% | 870 nM | 15% | 90% | 80%
3 | B2 | – | 940 nM | 0.0032 s⁻¹ | 3400 M⁻¹ s⁻¹ | 970 nM | – | – | – | – | – | – | – | –
4 | GIPGAAVPGVVSPEAAAKAAAKAAKYG (domain or fragment) [histidine tagged HTE20N] | – | – | – | – | – | – | – | 32% | 26% | 870 nM | 15% | 90% | 80%
